Experimental data as given in patent US20210032299A1 (Eli Lilly, published 2021).
Starred links: 1 amine or outer side, 2 acyl side, 3 side chain; linkers in the order of their positions; H or OH if unused. Non-standard residues stand in square brackets, D forms with d. Groups on a side chain read outwards from the residue. No end group written: not given here. *: point of attachment. C20 diacid = O=C(O)CCCCCCCCCCCCCCCCCCC(=O)*; C18 diacid = O=C(O)CCCCCCCCCCCCCCCCC(=O)*; αMePhe(2-F) = C[C@](N)(Cc1ccccc1F)C(=O)O; γGlu = O=C(O)[C@H](CCC(=O)[*:2])N[*:1]; αMeF = C[C@](N)(Cc1ccccc1)C(=O)O; 4Pal = N[C@@H](Cc1ccncc1)C(=O)O; αMeL = CC(C)C[C@](C)(N)C(=O)O; AEEA = NCCOCCOCC(=O)O; Aib = CC(C)(N)C(=O)O

T1: human glucose-dependent insulinotropic peptide receptor (human, UniProt P48546 22-466)
T1 sequence (looked up): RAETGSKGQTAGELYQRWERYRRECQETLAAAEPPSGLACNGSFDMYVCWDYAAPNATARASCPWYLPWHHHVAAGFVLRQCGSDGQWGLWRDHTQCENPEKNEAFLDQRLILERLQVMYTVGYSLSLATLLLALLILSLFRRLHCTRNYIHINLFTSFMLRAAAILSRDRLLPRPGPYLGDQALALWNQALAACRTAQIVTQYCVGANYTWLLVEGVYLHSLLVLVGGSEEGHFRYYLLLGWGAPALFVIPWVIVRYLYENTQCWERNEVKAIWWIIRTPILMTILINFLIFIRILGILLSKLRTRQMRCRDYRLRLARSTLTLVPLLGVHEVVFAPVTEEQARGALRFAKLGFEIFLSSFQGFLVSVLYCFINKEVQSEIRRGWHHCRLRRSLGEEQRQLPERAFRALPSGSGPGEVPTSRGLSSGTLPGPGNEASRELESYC

B1: Example 49 (peptide)
peptide: Y[Aib]EGTFISDYSI[αMeL]LDKK([AEEA-AEEA-γGlu-C18 diacid])HQ[Aib]DFVE[4Pal]LLAGGPSSGAPPPS-NH2
modifications: N-terminus assumed
SMILES: CC[C@H](C)[C@H](NC(=O)[C@H](Cc1ccccc1)NC(=O)[C@@H](NC(=O)CNC(=O)[C@H](CCC(=O)O)NC(=O)C(C)(C)NC(=O)[C@@H](N)Cc1ccc(O)cc1)[C@@H](C)O)C(=O)N[C@@H](CO)C(=O)N[C@@H](CC(=O)O)C(=O)N[C@@H](Cc1ccc(O)cc1)C(=O)N[C@@H](CO)C(=O)N[C@H](C(=O)N[C@@](C)(CC(C)C)C(=O)N[C@@H](CC(C)C)C(=O)N[C@@H](CC(=O)O)C(=O)N[C@@H](CCCCN)C(=O)N[C@@H](CCCCNC(=O)COCCOCCNC(=O)COCCOCCNC(=O)CC[C@H](NC(=O)CCCCCCCCCCCCCCCCC(=O)O)C(=O)O)C(=O)N[C@@H](Cc1c[nH]cn1)C(=O)N[C@@H](CCC(N)=O)C(=O)NC(C)(C)C(=O)N[C@@H](CC(=O)O)C(=O)N[C@@H](Cc1ccccc1)C(=O)N[C@H](C(=O)N[C@@H](CCC(=O)O)C(=O)N[C@@H](Cc1ccncc1)C(=O)N[C@@H](CC(C)C)C(=O)N[C@@H](CC(C)C)C(=O)N[C@@H](C)C(=O)NCC(=O)NCC(=O)N1CCC[C@H]1C(=O)N[C@@H](CO)C(=O)N[C@@H](CO)C(=O)NCC(=O)N[C@@H](C)C(=O)N1CCC[C@H]1C(=O)N1CCC[C@H]1C(=O)N1CCC[C@H]1C(=O)N[C@@H](CO)C(N)=O)C(C)C)[C@@H](C)CC
B2: Example 51 (peptide)
peptide: Y[Aib]EGT[αMePhe(2-F)]ISDYSI[αMeL]LDKK([AEEA-AEEA-γGlu-C20 diacid])HQ[Aib]DFVE[4Pal]LLAGGPSSGAPPPS-NH2
modifications: N-terminus assumed
SMILES: CC[C@H](C)[C@H](NC(=O)[C@H](CO)NC(=O)[C@H](Cc1ccc(O)cc1)NC(=O)[C@H](CC(=O)O)NC(=O)[C@H](CO)NC(=O)[C@@H](NC(=O)[C@](C)(Cc1ccccc1F)NC(=O)[C@@H](NC(=O)CNC(=O)[C@H](CCC(=O)O)NC(=O)C(C)(C)NC(=O)[C@@H](N)Cc1ccc(O)cc1)[C@@H](C)O)[C@@H](C)CC)C(=O)N[C@@](C)(CC(C)C)C(=O)N[C@@H](CC(C)C)C(=O)N[C@@H](CC(=O)O)C(=O)N[C@@H](CCCCN)C(=O)N[C@@H](CCCCNC(=O)COCCOCCNC(=O)COCCOCCNC(=O)CC[C@H](NC(=O)CCCCCCCCCCCCCCCCCCC(=O)O)C(=O)O)C(=O)N[C@@H](Cc1c[nH]cn1)C(=O)N[C@@H](CCC(N)=O)C(=O)NC(C)(C)C(=O)N[C@@H](CC(=O)O)C(=O)N[C@@H](Cc1ccccc1)C(=O)N[C@H](C(=O)N[C@@H](CCC(=O)O)C(=O)N[C@@H](Cc1ccncc1)C(=O)N[C@@H](CC(C)C)C(=O)N[C@@H](CC(C)C)C(=O)N[C@@H](C)C(=O)NCC(=O)NCC(=O)N1CCC[C@H]1C(=O)N[C@@H](CO)C(=O)N[C@@H](CO)C(=O)NCC(=O)N[C@@H](C)C(=O)N1CCC[C@H]1C(=O)N1CCC[C@H]1C(=O)N1CCC[C@H]1C(=O)N[C@@H](CO)C(N)=O)C(C)C
B3: Example 48 (peptide)
peptide: Y[Aib]EGTFISDYSI[αMeL]LDKK([AEEA-AEEA-γGlu-C20 diacid])HQ[Aib]DFVE[4Pal]LLAGGPSSGAPPPS-NH2
modifications: N-terminus assumed
SMILES: CC[C@H](C)[C@H](NC(=O)[C@H](Cc1ccccc1)NC(=O)[C@@H](NC(=O)CNC(=O)[C@H](CCC(=O)O)NC(=O)C(C)(C)NC(=O)[C@@H](N)Cc1ccc(O)cc1)[C@@H](C)O)C(=O)N[C@@H](CO)C(=O)N[C@@H](CC(=O)O)C(=O)N[C@@H](Cc1ccc(O)cc1)C(=O)N[C@@H](CO)C(=O)N[C@H](C(=O)N[C@@](C)(CC(C)C)C(=O)N[C@@H](CC(C)C)C(=O)N[C@@H](CC(=O)O)C(=O)N[C@@H](CCCCN)C(=O)N[C@@H](CCCCNC(=O)COCCOCCNC(=O)COCCOCCNC(=O)CC[C@H](NC(=O)CCCCCCCCCCCCCCCCCCC(=O)O)C(=O)O)C(=O)N[C@@H](Cc1c[nH]cn1)C(=O)N[C@@H](CCC(N)=O)C(=O)NC(C)(C)C(=O)N[C@@H](CC(=O)O)C(=O)N[C@@H](Cc1ccccc1)C(=O)N[C@H](C(=O)N[C@@H](CCC(=O)O)C(=O)N[C@@H](Cc1ccncc1)C(=O)N[C@@H](CC(C)C)C(=O)N[C@@H](CC(C)C)C(=O)N[C@@H](C)C(=O)NCC(=O)NCC(=O)N1CCC[C@H]1C(=O)N[C@@H](CO)C(=O)N[C@@H](CO)C(=O)NCC(=O)N[C@@H](C)C(=O)N1CCC[C@H]1C(=O)N1CCC[C@H]1C(=O)N1CCC[C@H]1C(=O)N[C@@H](CO)C(N)=O)C(C)C)[C@@H](C)CC
B4: Example 50 (peptide)
peptide: Y[Aib]EGT[αMeF]ISDYSI[αMeL]LDKK([AEEA-AEEA-γGlu-C20 diacid])HQ[Aib]DFVE[4Pal]LLAGGPSSGAPPPS-NH2
modifications: N-terminus assumed
SMILES: CC[C@H](C)[C@H](NC(=O)[C@H](CO)NC(=O)[C@H](Cc1ccc(O)cc1)NC(=O)[C@H](CC(=O)O)NC(=O)[C@H](CO)NC(=O)[C@@H](NC(=O)[C@](C)(Cc1ccccc1)NC(=O)[C@@H](NC(=O)CNC(=O)[C@H](CCC(=O)O)NC(=O)C(C)(C)NC(=O)[C@@H](N)Cc1ccc(O)cc1)[C@@H](C)O)[C@@H](C)CC)C(=O)N[C@@](C)(CC(C)C)C(=O)N[C@@H](CC(C)C)C(=O)N[C@@H](CC(=O)O)C(=O)N[C@@H](CCCCN)C(=O)N[C@@H](CCCCNC(=O)COCCOCCNC(=O)COCCOCCNC(=O)CC[C@H](NC(=O)CCCCCCCCCCCCCCCCCCC(=O)O)C(=O)O)C(=O)N[C@@H](Cc1c[nH]cn1)C(=O)N[C@@H](CCC(N)=O)C(=O)NC(C)(C)C(=O)N[C@@H](CC(=O)O)C(=O)N[C@@H](Cc1ccccc1)C(=O)N[C@H](C(=O)N[C@@H](CCC(=O)O)C(=O)N[C@@H](Cc1ccncc1)C(=O)N[C@@H](CC(C)C)C(=O)N[C@@H](CC(C)C)C(=O)N[C@@H](C)C(=O)NCC(=O)NCC(=O)N1CCC[C@H]1C(=O)N[C@@H](CO)C(=O)N[C@@H](CO)C(=O)NCC(=O)N[C@@H](C)C(=O)N1CCC[C@H]1C(=O)N1CCC[C@H]1C(=O)N1CCC[C@H]1C(=O)N[C@@H](CO)C(N)=O)C(C)C
B5: Example 47 (peptide)
peptide: Y[Aib]EGTFISDYSI[αMeL]LDKK([AEEA-AEEA-γGlu-C20 diacid])HQ[Aib]DFVE[4Pal]LLEGGPSSGAPPPS-NH2
modifications: N-terminus assumed
SMILES: CC[C@H](C)[C@H](NC(=O)[C@H](Cc1ccccc1)NC(=O)[C@@H](NC(=O)CNC(=O)[C@H](CCC(=O)O)NC(=O)C(C)(C)NC(=O)[C@@H](N)Cc1ccc(O)cc1)[C@@H](C)O)C(=O)N[C@@H](CO)C(=O)N[C@@H](CC(=O)O)C(=O)N[C@@H](Cc1ccc(O)cc1)C(=O)N[C@@H](CO)C(=O)N[C@H](C(=O)N[C@@](C)(CC(C)C)C(=O)N[C@@H](CC(C)C)C(=O)N[C@@H](CC(=O)O)C(=O)N[C@@H](CCCCN)C(=O)N[C@@H](CCCCNC(=O)COCCOCCNC(=O)COCCOCCNC(=O)CC[C@H](NC(=O)CCCCCCCCCCCCCCCCCCC(=O)O)C(=O)O)C(=O)N[C@@H](Cc1c[nH]cn1)C(=O)N[C@@H](CCC(N)=O)C(=O)NC(C)(C)C(=O)N[C@@H](CC(=O)O)C(=O)N[C@@H](Cc1ccccc1)C(=O)N[C@H](C(=O)N[C@@H](CCC(=O)O)C(=O)N[C@@H](Cc1ccncc1)C(=O)N[C@@H](CC(C)C)C(=O)N[C@@H](CC(C)C)C(=O)N[C@@H](CCC(=O)O)C(=O)NCC(=O)NCC(=O)N1CCC[C@H]1C(=O)N[C@@H](CO)C(=O)N[C@@H](CO)C(=O)NCC(=O)N[C@@H](C)C(=O)N1CCC[C@H]1C(=O)N1CCC[C@H]1C(=O)N1CCC[C@H]1C(=O)N[C@@H](CO)C(N)=O)C(C)C)[C@@H](C)CC

What follows are binders tested against human glucagon receptor (human, UniProt P47871 26-477) (assay: cell-based or functional assay).
Sequence of human glucagon receptor (P47871 26-477): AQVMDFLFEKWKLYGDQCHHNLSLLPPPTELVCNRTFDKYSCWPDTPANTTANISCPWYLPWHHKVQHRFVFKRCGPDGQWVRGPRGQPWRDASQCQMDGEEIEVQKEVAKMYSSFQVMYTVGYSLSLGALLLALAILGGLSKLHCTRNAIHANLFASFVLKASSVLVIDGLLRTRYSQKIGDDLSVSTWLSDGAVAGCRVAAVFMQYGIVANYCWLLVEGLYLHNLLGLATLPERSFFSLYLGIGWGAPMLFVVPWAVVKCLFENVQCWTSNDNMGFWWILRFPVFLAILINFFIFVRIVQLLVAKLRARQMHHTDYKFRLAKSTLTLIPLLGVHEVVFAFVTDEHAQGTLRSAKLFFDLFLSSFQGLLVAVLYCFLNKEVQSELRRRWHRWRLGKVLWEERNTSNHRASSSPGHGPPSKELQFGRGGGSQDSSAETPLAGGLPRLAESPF

Point of comparison: B1, “hGcgR cAMP Rel EC50” value 2860 nM. Against it:
- B2 — 9.3-fold lower, 308 nM
- B3 — 2.1-fold lower, 1360 nM
- B4 — 7.7-fold lower, 371 nM
- B5 — 3.8-fold lower, 757 nM

The binders below were run against T1, human glucose-dependent insulinotropic … (assay: cell-based or functional assay).

Point of comparison: B2, “hGIPR cAMP Rel EC50” value 0.0166 nM. Against it:
- B1 — within 1.5-fold, 0.0156 nM
- B3 — the same, 0.0166 nM
- B4 — within 1.5-fold, 0.0212 nM
- B5 — within 1.5-fold, 0.0234 nM

What follows are binders tested against human GLP-1 receptor (human, UniProt P43220 24-463) (assay: cell-based or functional assay).

Point of comparison: B4, “hGLP1R cAMP Rel EC50” value 41 nM. Against it:
- B1 — higher, > 5000 nM
- B2 — 1.7-fold lower, 24.7 nM
- B3 — higher, > 5000 nM
- B5 — higher, > 5000 nM
